Results: US20260116968A1 (CELLDEX THERAPEUTICS, published 2026)
Numbering of substitutions follows the chain as printed.

T1: kappa-sCD40(1-94)-Flag mutant fragment B (multiple mutations of residues 13-15) (human, UniProt P25942 21-114)
T1 construct: also called B (13-15); not shown: The N-terminal human kappa light chain and the C-terminal Flag tag
T1 chain: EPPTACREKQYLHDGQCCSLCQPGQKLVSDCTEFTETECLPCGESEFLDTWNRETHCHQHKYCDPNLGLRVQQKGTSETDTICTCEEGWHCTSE

T2: kappa-sCD40(1-94)-Flag mutant fragment C (multiple mutations of residues 25, 26, 28 and 30) (human, UniProt P25942 21-114)
T2 construct: also called C (25, 26, 28, 30); not shown: The N-terminal human kappa light chain and the C-terminal Flag tag
T2 chain: T1 chain with H13I, D14N, G15S, Q25S, K26R, V28T, D30H

B1: anti-CD40 human monoclonal antibody 1B4 (antibody, human IgG2, V domains shown)
VH: EVQLLESGGGLVQPGGSLRLSCAASGFTFSSYAMTWVRQVPGKGLEWVSGITGSGANTFYTDSVKGRFTISRDNSNNSLYLQMNSLRADDTAVYYCAKRNGGSYYYYYGMDVWGQGTTVTVSS
VL: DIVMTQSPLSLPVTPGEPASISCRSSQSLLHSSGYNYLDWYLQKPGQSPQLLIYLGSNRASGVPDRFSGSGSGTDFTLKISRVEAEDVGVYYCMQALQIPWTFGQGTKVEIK
notes: Human IgG2
B2: anti-CD40 human monoclonal antibody 3C3 (antibody, human IgG2, kappa, V domains shown)
VH: QVQLVESGGGVVQPGRSLRLSCAGSGFIFSRYGMYWVRQAPGKGLEWVAVIWYDGSYKYYADSVKGRFTISRDNSKNTLYLQMNSLRAEDTAVYYCARESPWYYFDYWGQGTLVTVSS
VL: DIQMTQSPSSLSASVGDRVTITCRASQGISNYLAWYQQKPGKVPKLLIYAASTLQSGVPSRFSGSGSGTDFTLTISSLQPEDVATYYCQKYKSAPFTFGPGTKVDIKR
notes: Full chains with leader removed; human IgG2 constant domain with C-terminal lysine removed; also called anti-CD40 mAb 3C3; CD40 antibody 3C3
B3: anti-CD40 human monoclonal antibody 3B6 (antibody, human IgG2, V domains shown)
VH: EVQLLESGGGLVQPGGSLRLSCAASGFTFSSYAMSWVRQAPGKGLEWVSGITGTGGSTYYADSVKGRFTISRDNSKNTLYVQMNSLRAEDTAVYYCAKRAGGSFYYYYGMDVWGQGTTVTVSS
VL: DIVMTQSPLSLPVTPGEPASISCRSSQSLLHSTGYNYLDWYLQKPGQSPQLLIYLGSNRASGVPDRFNGSGSGTDFTLKISRVEAEDFGVYYCMQALQTPWTFGHGTKVEIK
notes: Human IgG2
B4: anti-CD40 human monoclonal antibody 6H6 (antibody, human IgG2, V domains shown)
VH: QVQLVESGGGVVQPGRSLRFSCAASGFTLSSYGMHWVRQAPGKGLEWVAVIWDDGSNKYYADSVKGRFTISRDNSKNTLYLQMNSLRAEDTAVYYCARAGGSGRYYNYFDYWGQGTLVTVSS
VL: EIVMTQSPATLSVSPGERATLSCRASQSVRSNLAWYQQKPGQAPRLLIYGASTRATGIPARFSGSGSGTDFTLTISSLQSEDFAVYYCQQHNNWLTFGGGTKVEIK
notes: Human IgG2

Assays:
[1] = biological target: T3, human CD40 expressed on the cell surface (Raji cells, Ramos cells, human PBMC B cells, luciferase reporter … (human, UniProt P25942 21-277)); experiment: flow cytometry on Raji and Ramos cells
T3 construct: also called CD40 on cells expressing human CD40
T3 sequence (P25942 21-277 limits assumed): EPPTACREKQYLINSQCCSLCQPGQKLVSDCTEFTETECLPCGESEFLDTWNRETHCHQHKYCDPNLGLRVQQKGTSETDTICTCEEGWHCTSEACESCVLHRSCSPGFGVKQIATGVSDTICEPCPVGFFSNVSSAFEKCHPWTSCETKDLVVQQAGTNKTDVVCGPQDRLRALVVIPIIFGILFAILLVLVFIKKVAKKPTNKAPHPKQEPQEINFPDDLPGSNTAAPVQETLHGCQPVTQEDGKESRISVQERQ
Description: Antibodies from Example 1 were tested for binding to human cell lines expressing human CD40 on their surface. […] After 20 minutes, the cells were washed with PBS containing 0.1% BSA and 0.05% NaN3 (PBA) and the bound antibodies were detected by incubating the cells with a PE labeled goat anti-human IgG Fc-specific probe. The excess probe was washed from the cells with PBA and the cell associated fluorescence was determined by analysis using a FACSCanto II™ instrument (BD Biosciences, NJ, USA) according to the manufacturer's directions.

[2] = biological target: T1, kappa-sCD40(1-94)-Flag mutant fragment …; experiment: ELISA, kappa-sCD40-Flag captured by anti-Flag, anti-human IgG Fc-HRP detection
Description: (§1) 1 μg/ml of purified kappa-sCD40-Flag fusion proteins or CHO cell supernatants containing the sCD40 fusion proteins were captured to microtiter plates that were pre-coated with 5 μg/ml mouse anti-Flag antibody (Sigma) in PBS and blocked with 5% bovine serum albumin in PBS. Following incubation with the CD40 antibody, the microplates were washed with PBS/Tween, and incubated with a goat anti-human IgG Fc polyclonal reagent conjugated to horseradish peroxidase. After washing, the plates were developed with HRP substrate, and analyzed at OD 450-650 using a microtiter plate reader. An ELISA with a goat anti-human IgG Fab2-HRP to measure kappa chain binding was carried out in parallel to validate the sCD40 fusion protein expression from different transfections.

[3] = biological target: T2, kappa-sCD40(1-94)-Flag mutant fragment …; experiment: as above
Description: as §1

[4] = biological target: T1, kappa-sCD40(1-94)-Flag mutant fragment …; experiment: ELISA, kappa-sCD40-Flag (~2 ug/ml) captured by anti-Flag, anti-human IgG Fc-HRP detection
Description: as §1, with “containing” for “1 μg/ml of purified kappa-sCD40-Flag fusion proteins or CHO cell supernatants containing”

[5] = biological target: T2, kappa-sCD40(1-94)-Flag mutant fragment …; experiment: as above
Description: as §1, with “containing” for “1 μg/ml of purified kappa-sCD40-Flag fusion proteins or CHO cell supernatants containing”

Binder	binding result [1]	Average OD [2]	Average OD [3]	OD [4]	OD [5]
B1	binds	–	–	–	–
B2	–	2.03 OD 450-650	1.49 OD 450-650	2.38 OD 450-650	2.02 OD 450-650
B3	binds	–	–	–	–
B4	binds	–	–	–	–
